Target: CD52 peptide mimotope (…) (human)
Assay: SPR

- Kd: 1250 nM
B1: MAB1 light chain N33D mutant (antibody, V domains shown)
VH: EVQLVESGGGLVQPGGSLRLSCAASGFPFSNYWMNWVRQAPGKGLEWVGQIRLKSNNYATHYAESVKGRFTISRDDSKNSLYLQMNSLKTEDTAVYYCTPIDYWGQGTTVTVSS
VL: DIVMTQTPLSLSVTPGQPASISCKSSQSLLYSDGKTYLNWVLQKPGQSPQRLIYLVSKLDSGVPDRFSGSGSGTDFTLKISRVEAEDVGVYYCVQGSHFHTFGQGTKLEIK
